Results from patent US20260008862A1, “Bispecific Anti-BCMA x Anti-CD3 Antibodies and Uses Thereof” (Regeneron Pharmaceuticals, Inc., priority 2018, published 2026).

B1: REGN4515: anti-BCMA antibody, HCVR/LCVR SEQ ID NOs 50/58 (antibody, V domains shown)
VH: QVQLVESGGGLVKPGGSLRLSCAASGFTFSDYYISWIRQAPGKGLEWVSYISSSGSSIKYADSVKGRFTISRDNAKNSLYLQMNSLRAEDTAVYYCAREGGNYGMDVWGQGTTVTVSS
VL: DIQMTQSPSSVSASVGDRVTITCRASQGINNWLVWYQQKPGKAPKLLIYAATSLQSGVPSRFSGSGSGTDFTLTISSLQPEDFATYYCQQANSFPPTFGQGTKLEIK
B2: mAb16711: anti-BCMA antibody, HCVR/LCVR SEQ ID NOs 2/10 (antibody, V domains shown)
VH: QVQLVESGGGVVQPGRSLRLSCAASGFTFSTYGIHWVRQAPGKGLEWVAVILHDGSSNYYAESVKGRFIISRDNSKNTLYLQMNSLRAEDTALYYCTKRYSEAAGPNWFDPWGQGTLVTVSS
VL: DIQMTQSPSSVSASVGDRVTITCRASRGISSWLAWYQQKPGKAPKLLIHAASSLQSGVPSRFSGSGSGTDFTLTISSLQPEDFATYYCQQAISFPFTFGPGTKVDIK
B3: REGN4514: anti-BCMA antibody, HCVR/LCVR SEQ ID NOs 34/42 (antibody, V domains shown)
VH: EVQLVESGGGLVQPGRSLRLSCAASGFTFDDYAMHWVRQAPGKGLEWVSGISWNSGNMGYADSVKGRFTISRDNAKNSLFLQMHSLRAEDTAFYYCAKVRLTAFDFWGQGTLVTVSS
VL: DIQMTQSPSSLSASVGDRVTITCRTSQSIGNYLNWFQQKPGKAPKLLIYTASSLQNGVPSRFTGSGSGTDFTLTISSLQPEDFVIYYCQQSFSTPYTFGQGTKLEIK

How the values were obtained:
[1] = biological target: T1, surface BCMA on H929 cells (Homo sapiens, UniProt Q02223); test: FACS surface BCMA after overnight incubation, NCI-H929; format: cell-based; details: range over detecting anti-BCMA antibodies
T1 construct: human cell lines which express endogenous BCMA (e.g., NCI-H929); endogenous in cells; host or cells: multiple myeloma cell lines H929
Method: (§1) Flow cytometric analysis was utilized to determine the impact of overnight incubation of multiple myeloma cell lines with anti-BCMA antibodies on the level of surface BCMA. […] After 18 hours, wells were washed with cold FACS wash (PBS+1% filtered FBS) and resuspended in 667 nM of the same anti-BCMA antibody in cold stain buffer (Miltenyi 130-091-221) for 30 minutes on ice. After incubation, the cells were washed twice with cold FACS wash (PBS+1% filtered FBS) and bound antibody was detected by incubating with the appropriate anti-human secondary antibody (anti-hIgG or anti-HIS) on ice for an additional 30-45 minutes. After incubation, cells were washed, re-suspended in 200 μL cold PBS containing 1% filtered FBS and analyzed by flow cytometry on a BD FACS Canto II. Fold increase in staining was calculated by dividing the MFI of stained cells previously incubated overnight in BCMA abs or DAPT by the MFI of stained cells that were incubated overnight in media only.

[2] = biological target: surface BCMA on Molp8 cells (Homo sapiens, UniProt Q02223); test: FACS surface BCMA after overnight incubation, Molp8; format: cell-based; details: range over detecting anti-BCMA antibodies
Method: as §1

[3] = biological target: T2, surface BCMA on U266 cells (Homo sapiens, UniProt Q02223); test: FACS surface BCMA after overnight incubation, U266; format: cell-based; details: range over detecting anti-BCMA antibodies
T2 construct: human cell lines which express endogenous BCMA; endogenous in cells; host or cells: multiple myeloma cell lines U266
Method: as §1

[4] = biological target: surface BCMA on MM1.S cells (Homo sapiens, UniProt Q02223); test: FACS surface BCMA after overnight incubation, MM1S; format: cell-based; details: MM.1 S
Method: as §1

mouse BCMA-MFC = test: SPR (Biacore 4000) binding kinetics to mouse BCMA-MFC; details: 25° C.
Method: (§2) The CM5 Biacore sensor surface was derivatized by amine coupling with a monoclonal mouse anti-human Fc antibody (GE, #BR-11008-39) to capture purified anti-BCMA mAbs and anti-BCMA×anti-CD3 bispecific mAbs. All Biacore binding studies were performed in a buffer composed of 0.01 M HEPES pH 7.4, 0.15M NaCl, 3 mM EDTA, 0.05% v/v Surfactant P20 (HBS-ET running buffer). […] Antigen samples were then injected over the anti-BCMA and anti-BCMA×anti-CD3 bispecific mAbs captured surfaces at a flow rate of 30 μL/minute. Antibody-reagent association was monitored for 5 minutes while dissociation in HBS-ET running buffer was monitored for 10 minutes. All of the binding kinetics experiments were performed at 25° C. Kinetic association (ka) and dissociation (kd) rate constants were determined by fitting the real-time sensorgrams to a 1:1 binding model using Scrubber 2.0c curve fitting software. Binding dissociation equilibrium constants (KD) and dissociative half-lives (t½) were calculated from the kinetic rate constants as: […]

monkey BCMA-MMH = test: SPR (Biacore 4000) binding kinetics to monkey BCMA-MMH; details: 25° C.; 90 nM antigen
Method: as §2

human BCMA-MMH = biological target: T3, human BCMA-MMH (Homo sapiens, UniProt Q02223); test: SPR (Biacore 4000) binding kinetics to human BCMA-MMH; details: 25° C.
T3 construct: (human BCMA-MMH); myc-myc-hexahistidine (C); made in house
Method: as §2

monkey BCMA-MFC = test: SPR (Biacore 4000) binding kinetics to monkey BCMA-MFC; details: 25° C.
Method: as §2

human BCMA-MFC = biological target: T4, human BCMA-MFC (Homo sapiens, UniProt Q02223); test: SPR (Biacore 4000) binding kinetics to human BCMA-MFC; details: 25° C.
T4 construct: (human BCMA-MFC); made in house
Method: as §2

monkey BCMA-MFC, sequence (as listed by the source): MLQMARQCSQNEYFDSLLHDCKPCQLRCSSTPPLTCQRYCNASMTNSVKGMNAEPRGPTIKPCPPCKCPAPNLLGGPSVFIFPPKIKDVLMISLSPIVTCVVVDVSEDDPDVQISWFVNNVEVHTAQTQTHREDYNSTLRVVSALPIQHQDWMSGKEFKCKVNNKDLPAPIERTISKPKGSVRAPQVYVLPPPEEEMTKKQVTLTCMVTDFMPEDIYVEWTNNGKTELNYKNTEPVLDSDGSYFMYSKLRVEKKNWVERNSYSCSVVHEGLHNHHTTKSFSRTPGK
T4 sequence (Q02223 with tags, fused parts or gaps): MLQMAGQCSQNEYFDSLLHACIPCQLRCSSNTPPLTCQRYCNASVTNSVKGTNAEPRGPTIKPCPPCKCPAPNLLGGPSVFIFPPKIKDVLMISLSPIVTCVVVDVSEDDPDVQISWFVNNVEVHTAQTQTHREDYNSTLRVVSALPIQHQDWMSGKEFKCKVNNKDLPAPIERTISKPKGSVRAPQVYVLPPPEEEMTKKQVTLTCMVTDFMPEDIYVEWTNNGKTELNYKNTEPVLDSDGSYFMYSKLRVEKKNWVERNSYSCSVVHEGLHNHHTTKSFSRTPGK
mouse BCMA-MFC, sequence (as listed by the source): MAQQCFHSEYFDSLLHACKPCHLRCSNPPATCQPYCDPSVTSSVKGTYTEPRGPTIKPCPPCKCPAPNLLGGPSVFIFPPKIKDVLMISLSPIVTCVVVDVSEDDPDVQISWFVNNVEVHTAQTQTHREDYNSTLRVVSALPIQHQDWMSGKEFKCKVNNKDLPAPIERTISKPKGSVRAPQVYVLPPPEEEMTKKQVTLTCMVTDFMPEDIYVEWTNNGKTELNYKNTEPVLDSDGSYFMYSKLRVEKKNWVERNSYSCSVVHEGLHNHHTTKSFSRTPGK
T3 sequence (Q02223 with tags, fused parts or gaps): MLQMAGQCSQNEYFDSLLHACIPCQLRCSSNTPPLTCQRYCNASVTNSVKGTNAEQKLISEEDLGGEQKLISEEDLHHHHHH
monkey BCMA-MMH, sequence (as listed by the source): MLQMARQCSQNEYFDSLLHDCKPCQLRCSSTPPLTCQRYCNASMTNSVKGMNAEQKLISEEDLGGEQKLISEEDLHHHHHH
T2 sequence (Q02223 whole entry): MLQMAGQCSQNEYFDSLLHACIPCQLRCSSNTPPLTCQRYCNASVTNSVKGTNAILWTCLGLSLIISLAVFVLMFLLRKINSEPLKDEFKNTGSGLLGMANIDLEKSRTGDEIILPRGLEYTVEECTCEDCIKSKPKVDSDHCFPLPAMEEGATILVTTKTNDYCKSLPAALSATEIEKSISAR
T1 sequence (Q02223 whole entry): as above
surface BCMA on Molp8 cells, sequence (Q02223 whole entry): as above
surface BCMA on MM1.S cells, sequence (Q02223 whole entry): as above

Molecule	fold increase in MFI of BCMA over cells incubated in media only [1]	fold increase in MFI of BCMA over cells incubated in media only [2]	fold increase in MFI of BCMA over cells incubated in media only [3]	fold increase in MFI of BCMA over cells incubated in media only [4] [fold]	ka (mouse BCMA-MFC) [M⁻¹ s⁻¹]	kd (mouse BCMA-MFC) [s⁻¹]	90 nM mfBCMA.mmh Bind (RU) (monkey BCMA-MMH)	ka (human BCMA-MMH) [M⁻¹ s⁻¹]	kd (human BCMA-MMH) [s⁻¹]	ka (monkey BCMA-MFC) [M⁻¹ s⁻¹]	kd (monkey BCMA-MFC) [s⁻¹]	ka (human BCMA-MFC) [M⁻¹ s⁻¹]	kd (human BCMA-MFC) [s⁻¹]
C[C@H](NC(=O)Cc1cc(F)cc(F)c1)C(=O)N[C@H](C(=O)OC(C)(C)C)c1ccccc1 [DAPT]	2.3-4 fold	2.4-8.6 fold	5.3-9.0 fold	11.9	–	–	–	–	–	–	–	–	–
B1	–	–	–	–	947000	0.00418	1.9	869000	0.00247	2.13e+06	0.00716	1.41e+06	8.95e-05
B2	–	–	–	–	1.07e+06	0.0011	–	2.01e+06	0.00347	–	–	1.85e+06	0.00019
B3	–	–	–	–	397000	0.000269	1.1	1.06e+06	0.00285	492000	0.00724	1.07e+06	4.53e-05
